In PMC10848425, “Selective enhanced cytotoxicity of amino acid deprivation for cancer therapy using thermozyme functionalized nanocatalyst” (Journal of Nanobiotechnology, 2024):

Key:
Assay in all cases: Lineweaver-Burk plot of the Michaelis-Menten equation
[1] = substrate: NC(=O)C[C@H](N)C(=O)O; format: biochemical, Thermococcus litoralis; conditions: 90 °C, pH 9.0, free enzyme
Source text: Lineweaver-Burk plot of the Michaelis-Menten equation on asparaginase Tli10209

[2] = substrate: N=C(N)NCCC[C@H](N)C(=O)O; format: biochemical, Thermococcus litoralis; conditions: 70 °C, pH 10.0, free enzyme
Source text: Lineweaver-Burk plot of the Michaelis-Menten equation on arginase Tli08105

[3] = substrate: NC(=O)C[C@H](N)C(=O)O; format: biochemical, Thermus thermophilus; conditions: 80 °C, pH 9.0, free enzyme
Source text: Lineweaver-Burk plot of the Michaelis-Menten equation on asparaginase Ttha0067

B1: asparaginase Tli10209 (Thermococcus litoralis DSM 5473) (protein)
chain: MSEKRKLERRGAEDMKRILIIGTGGTIASAKTDAGFKSVLTIDEILEKADIKLKNGYEIDTRNILNIDSTLIQPEDWERIAKEVYKALEDYDGIVITHGTDTLAYTASMLTFMIRGINKPVVLTGSMRPVTEEESDAPRNLKAAIRFAMEDVSGIFVAFMDKIMLGCRTSKIRALGLNAFMSINYPDVAYVKGEEVIYNLPQKRFKPKGEPVLDTKYEPRVVFIRLTPGLDGNAIDALVKAGYRGIVLEGYGAGGIPYRKRDILSKIREITPQIPVVMTTQALYDGVDLTKYEVGRKALEAGIIPAKDMTKETTITKLMWALGHTKNVEEVKEIMHTNYADEIEG
notes: recombinant, purified by Ni2+-NTA; free enzyme; expression details in supplement
Question: What does the source list for B1?
Answer: Km [1]: 4.340 mM; kcat [1]: 2080 s⁻¹; kcat/Km [1]: 479000 M⁻¹ s⁻¹

B2: arginase Tli08105 (Thermococcus litoralis DSM 5473) (protein)
chain: MLFGIPSSKKPNLYILGIPWDNSSSFRRGCAEGPRAIREATSEELYNSFNEELVNLTEHWSYKDLGDIKADTFEELVEKVNAIVRKHYNGELFLFLGGDHSITYATFKAIKEASNEDFGLIYFDAHPDMYPEYDGDEYSHACTVRRLIEEGWVKGENVVQIGVRAPTREQVEFAKEHGVKIISASGIYRSPVIQVPFEKAYLSFDMDVLDPAFAPGVGNPEPGGLSTRELVEVIKSLNVEIIAFDIVELNPKYDYKGISAFAAAKIIREVLGKAAKTK
notes: as for B1
Question: How did the Km [2] turn out when B2 was run?
Answer: The Km was 1.059 mM.

Question: And the Vmax [2]?
Answer: Its Vmax is 961 µM/min.

Question: And the kcat [2]?
Answer: The kcat was 1.25 s⁻¹.

Question: And the kcat/Km [2]?
Answer: The kcat/Km was 1350 M⁻¹ s⁻¹.

B3: asparaginase Ttha0067 (Thermus thermophilus HB8) (protein)
chain: MSAEVLVYRGSLVENRHRVSLALWGPEGLVAYAGDPGRVAYLRSSAKPFQALALYLTGAVERFGLTEEEVALATASHDGTPRHVEVAARFLGKLGLGPEHLVCGVHPPFSREARAALEAQGLAPTPLHHNCSGKHAGMLAAALALGAPAEGYHLPDHPVQRLNLATLEALSGARPGLATDGCSVPTFALSLARAARAFFLLADPGRAPEAYRTPLLRVREAMRRHPDLVAGPGSVDTLLMERLPVVAKRGADGYYGLALLEGPRGPLGVALKVEDGATLAREVAVVALLRALGLDPGKTPWDRPPVRNHRGLEVGHLEARLGLVWV
notes: as for B1
Question: With B3 as the protein, how does the Km [3] read?
Answer: Its Km is 6.178 mM.

Question: And the kcat [3]?
Answer: The kcat was 1210 s⁻¹.

Question: What about the kcat/Km [3] of the same protein?
Answer: Its kcat/Km is 196000 M⁻¹ s⁻¹.
